Laboratory results as given in patent US20070071742A1 (PERLAN THERAPEUTICS, published 2007).
Numbering of substitutions follows the chain as printed.

B1: HumA humanized 1A6 scFv (scFv, not shown: large carriers)
scFv: DIQMTQSPSSLSASVGDRVTITCRASQSISNNLHWYQQKPGKAPKLLIYHASQSISGVPSRFSGSGSGTDFTLTISSLQPEDFATYYCQQSNSWPYTFGQGTKVEIKRGGGGSGGGGSGGGGSGGGGSEVQLVESGGGLVQPGGSLRLSCAASGFNIKDTYIHWVRQAPGKGLEWVARIDPANDNTIYADSVKGRFTISSDDSKNTAYLQMNSLRAEDTAVYYCTDSGYWFAYWGQGTLVTVSS
B2: HumC humanized 1A6 scFv (scFv, not shown: large carriers)
scFv: B1 scFv with S200G, D226T
B3: HumB humanized 1A6 scFv (scFv, not shown: large carriers)
scFv: B1 scFv with D226A

Target: ICAM-1 on HeLa cells (UniProt P05362 28-532, limits assumed)
Sequence (P05362 28-532 limits assumed): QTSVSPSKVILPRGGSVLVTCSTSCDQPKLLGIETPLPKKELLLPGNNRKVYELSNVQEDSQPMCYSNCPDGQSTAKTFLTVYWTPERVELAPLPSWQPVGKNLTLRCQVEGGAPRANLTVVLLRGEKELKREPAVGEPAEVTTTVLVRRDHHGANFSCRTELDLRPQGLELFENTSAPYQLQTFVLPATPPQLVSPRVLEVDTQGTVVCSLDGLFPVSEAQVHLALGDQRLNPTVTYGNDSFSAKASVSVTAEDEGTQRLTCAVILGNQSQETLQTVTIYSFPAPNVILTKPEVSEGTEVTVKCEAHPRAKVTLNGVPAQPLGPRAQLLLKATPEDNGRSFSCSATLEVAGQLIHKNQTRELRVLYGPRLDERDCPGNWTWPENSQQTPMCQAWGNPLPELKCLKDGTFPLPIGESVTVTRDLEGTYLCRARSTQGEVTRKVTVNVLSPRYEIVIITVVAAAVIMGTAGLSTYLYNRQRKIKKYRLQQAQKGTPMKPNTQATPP
Experiment: cell-based or functional assay

Binder | EC 50 (µM): 50% protection of HeLa cells against HRV15 infection at 1 MOI [µM]
B1 | 2.8
B2 | 0.22
B3 | 0.19
